Experimental findings from patent US11612662B2, “Multi-arm polymeric prodrug conjugates of pemetrexed-based compounds” (priority 2010, dated 2023) are described below.

Data set [1] in a line: Single dose maximum tolerated dose study. It counts as in vivo, mice. The settings on record: single intravenous dose; for Single dose MTD: dose equivalents, in mg/kg. The procedure:
Because of too much efficacy of daily dosing for ten days in a pilot xenograft study (likely due to the effects of repeated dosing), a single dose maximum tolerated dose study was conducted using a method similar to that provided in Example 3 in order to have a better dosing schedule for a comparative xenograft study.

Another data set deals with xenograft. Put plainly: In vivo xenograft study. Also on record: species or system female athymic nu/nu mice. The settings on record: as of day 26; intravenously, at 80% and at 50% of the single dose maximum tolerated dose. The procedure: Briefly, for run of the experiment, a previously untreated group of 8-12 week old mice was intravenously administered a test article prepared in saline and diluted to appropriate concentrations to allow administration volumes of a maximum of 20 mL/kg. Each compound of interest was tested twice: once at 80% of the maximum tolerated dose and once at 50% of the maximum tolerated (maximum tolerated doses calculated on the single dose maximum tolerated dose study).
Mice were observed daily for clinical signs and body weights were recorded daily (except on weekend days) then biweekly until the end of study. Dosing was terminated for any group in which mean weight loss exceeded 20% or >10% of animals died. Moribund animals were euthanized.

Another data set in a line: in vivo. The settings on record: for maximum treatment-related body weight loss / time to recover lost body weight / Days of Deaths (s = surviving at study end) / tolerability of the dosage level / common clinical signs / necropsy findings / Max. Mean Body Weight change during Rx (%) / Day of Max. Mean Body Weight Loss (body weight nadir) / % Rx Related Deaths: low folate diet; for Days of Deaths (s = surviving at study end): five mice listed singly; for tolerability of the dosage level: tolerated if treatment-related weight loss <20%; for Max. Mean Body Weight change during Rx (%) / MTD (maximum tolerated dose): intravenously once each day for ten days; for Day of Max. Mean Body Weight Loss (body weight nadir) / % Rx Related Deaths: once each day for ten days; for MTD (maximum tolerated dose): mice fed a folate deficient diet, dose equivalents. The procedure: The purpose of this study was to determine the maximum tolerated dose for pemetrexed (PMX), Compound 20a (from Example 1), Compound 20b (from Example 1), Compound 20c (from Example 1), and Compound 20d (from Example 1) in female SCID mice fed a low folate diet. All compounds were administered intravenously, once each day, for ten consecutive days.
Calculations were made to provide “dose equivalents” between PMX, Compound 20a, Compound 20b, Compound 20c and Compound 20d, which “dose equivalents” along with the “actual dose” administered are provided in Table 2. All dosagese in this example are expressed in terms of “dose equivalents” and adjustments were made for excipients, salts and hydration state.
Female SCID mice (HsdIcr:Ha (ICR)-Prkdc-scid) were obtained from Harlan. They were seven weeks old on Day 1 of the experiment. The mice in Groups 1 and 2 were fed irradiated Rodent Diet 5053 (LabDiet™). The mice in Groups 3 through 19 were fed irradiated Folic Acid Deficient Purina TestDiet supplemented with 1% succinylsufathiazol from 14 days prior to dosing until 14 days after dosing was completed, at which time the study was terminated and the mice were then euthanized. All groups received drinking water ad libitum. Mice were housed in static cages in clean rooms that provide H.E.P.A filtered air into the environment at 100 complete air changes per hour. All treatments, body weight determinations, and tumor measurements were carried out in the environment. The environment was controlled to a temperature range of 70°±2° F. and a humidity range of 30-70%. […] Mice found in obvious distress or in a moribund condition were euthanized. The study was carried out in an AAALAC accredited facility.
Treatments began on Day 1. […] Mice in Groups 3 through 19 were fed irradiated Folic Acid Deficient Purina TestDiet with 1% Succinylsufathiazol for 14 days prior to dosing as well as throughout the entire experiment. All mice were dosed according to individual body weight on the day of treatment (0.2 ml/20 g).
Mice were weighed on each day of treatment and at least three times weekly thereafter. Individual body weights were recorded three times weekly. […] In this report, a dosage level is described as tolerated if treatment-related weight loss (during and two weeks after treatment) is <20%. Upon death or euthanasia, all mice were necropsied to provide a general assessment of potential cause of death and perhaps target organs for toxicity.

Setting [2] is: 3.75 mg/kg/inj dose equivalents.

In the case of “4-arm-PEG-20k-γ-Ethyl-Ester-pemetrexed [Compound 24b]”, the “Single dose MTD” value in data set [1] is reported as 12. Moreover, the treatment-related deaths in data set [1] (tested dose (equiv) 8) was 0. Further, in data set [1] (tested dose (equiv) 12), the “BWL (body weight loss)” value is reported as −8.9%, the “day (of body weight loss)” value is on record as 5 and the treatment-related deaths was 0. Besides, in data set [1] (tested dose (equiv) 20), the “BWL (body weight loss)” value is on record as −10.4%, the “day (of body weight loss)” value is reported as 5 and the treatment-related deaths amounted to 0. The “tumor volume compared with saline control” value in the data set on xenograft was “significantly less tumor volume than saline control”.

In the case of “4-arm-PEG-20k-γ-isopropyl-ester-pemetrexed [Compound 28]”, the “Single dose MTD” value in data set [1] was determined as 10. In data set [1] (tested dose (equiv) 10), the “BWL (body weight loss)” value is on record as −7.3%, the “day (of body weight loss)” value is 9 and the treatment-related deaths came to 0. For the same substance, in data set [1] (tested dose (equiv) 18), the “BWL (body weight loss)” value is given as −6.6%, the “day (of body weight loss)” value is given as 5 and the treatment-related deaths was 0. Moreover, in data set [1] (tested dose (equiv) 25), the “BWL (body weight loss)” value was −9.1%, the “day (of body weight loss)” value was 7 and the treatment-related deaths came to 0. For the same substance, the “tumor volume compared with saline control” value with xenograft is on record as “significantly less tumor volume than saline control”.

Turning to “4-arm-PEG40k-γ-amide-Pemetrexed Conjugate [Compound 20d]”, the “Single dose MTD” value in data set [1] was roughly 40. Further, in data set [1] (tested dose (equiv) 40), the “BWL (body weight loss)” value is −12.6%, the “day (of body weight loss)” value is reported as 7 and the treatment-related deaths stood at 0. Also, in data set [1] (tested dose (equiv) 60), the “BWL (body weight loss)” value was −20.8%, the “day (of body weight loss)” value was 9 and the treatment-related deaths worked out at 0. In addition, in data set [1] (tested dose (equiv) 90), the “BWL (body weight loss)” value was −21.4%, the “day (of body weight loss)” value is on record as 9, the “mean day of death” value is on record as 12 and the treatment-related deaths is on record as 1. Further, in data set [1] (tested dose (equiv) 125), the “BWL (body weight loss)” value is given as −21.8%, the “day (of body weight loss)” value is listed as 6, the “mean day of death” value is on record as 7 and the treatment-related deaths is given as 5. Besides, in the data set on xenograft, the “tumor volume compared with saline control” value is “significantly less tumor volume than saline control” and the “tumor volume compared with the other articles tested” value is “lowest tumor volumes of all articles tested”. In the data set “in vivo” (1 mg/kg), the “maximum treatment-related body weight loss” value came to 0.9%, the “time to recover lost body weight” value was 0.8 days and the “tolerability of the dosage level” value is “tolerated”. Further, in the data set “in vivo” (1 mg/kg/inj dose equivalents), the “Days of Deaths (s = surviving at study end)” value (“Days of Deaths” below) is reported as “s, s, s, s, s”; the “Max. Mean Body Weight change during Rx (%)” value is on record as −0.9%; the “Day of Max. Mean Body Weight Loss (body weight nadir)” value (“Day of Max. Mean Body Weight Loss” below) was 5. In addition, in the data set “in vivo” (3.75 mg/kg), the “maximum treatment-related body weight loss” value is on record as 4.5%, the “time to recover lost body weight” value is given as 11.3 days and the “tolerability of the dosage level” value is given as “tolerated”. Moreover, in “in vivo” (setting [2]), the “Days of Deaths” value is recorded as “s, s, s, s, s”; the “Max. Mean Body Weight change during Rx (%)” value is given as −4.5%; the “Day of Max. Mean Body Weight Loss” value stood at 5. Besides, in “in vivo” (15 mg/kg), the “maximum treatment-related body weight loss” value is reported as 28.8%, the “time to recover lost body weight” value was “not recovered prior to study termination” and the “tolerability of the dosage level” value is on record as “toxic”. In the data set “in vivo” (dosage levels found tolerated), the common clinical signs entry is reported as “Rough pelage” and the necropsy findings result is on record as “Nothing significant”. Moreover, in the data set “in vivo” (dosage levels found toxic), the common clinical signs result is “Rough pelage” and the necropsy findings entry is reported as “Nothing significant”. Further, in the data set “in vivo” (15 mg/kg/inj dose equivalents), the “Max. Mean Body Weight change during Rx (%)” value is reported as −28.8%, the “% Rx Related Deaths” value was found to be 40% and the “Day of Max. Mean Body Weight Loss” value was determined as 15. Moreover, the “MTD (maximum tolerated dose)” value in “in vivo” fell in the range of 3.75 to 15 mg/kg.

Take “4-arm-PEG10k-γ-amide-Pemetrexed Conjugate [Compound 20a]”: in the data set “in vivo” (1 mg/kg), the “maximum treatment-related body weight loss” value was “approximately 3.0%” and the “tolerability of the dosage level” value is reported as “tolerated”. Besides, in “in vivo” (3.75 mg/kg), the “maximum treatment-related body weight loss” value is on record as “approximately 3.0%” and the “tolerability of the dosage level” value was “tolerated”. In “in vivo” (setting [2]), the “Days of Deaths” value is given as “s, s, s, s, s”; the “Max. Mean Body Weight change during Rx (%)” value is on record as −3.0%; the “% Rx Related Deaths” value is recorded as 0%; the “Day of Max. Mean Body Weight Loss” value is listed as 8. In addition, in “in vivo” (15 mg/kg), the “maximum treatment-related body weight loss” value came out at 14.9%, the “time to recover lost body weight” value was “approximately 10 days” and the “tolerability of the dosage level” value is on record as “toxic”. In the data set “in vivo” (dosage levels found tolerated), the common clinical signs result was “Rough pelage”; the necropsy findings entry was “bloated intestines and air filled stomachs”. Also, in “in vivo” (1 mg/kg/inj dose equivalents), the “Max. Mean Body Weight change during Rx (%)” value is reported as −3.4%, the “% Rx Related Deaths” value came to 20% and the “Day of Max. Mean Body Weight Loss” value was 5. For the same substance, in “in vivo” (15 mg/kg/inj dose equivalents), the “Max. Mean Body Weight change during Rx (%)” value is −14.9%, the “% Rx Related Deaths” value worked out at 40% and the “Day of Max. Mean Body Weight Loss” value came out at 8. Besides, in the data set “in vivo”, the “MTD (maximum tolerated dose)” value lay in the range of 3.75 to 15 mg/kg.

Regarding “4-arm-PEG-40k-γ-Ethyl-Ester-pemetrexed [Compound 24c]”, the “Single dose MTD” value in data set [1] is 10. Also, in data set [1] (tested dose (equiv) 5), the “BWL (body weight loss)” value is listed as −0.5%, the “day (of body weight loss)” value was found to be 5 and the treatment-related deaths turned out to be 0. In data set [1] (tested dose (equiv) 10), the “BWL (body weight loss)” value is reported as −7.6%, the “day (of body weight loss)” value is on record as 5 and the treatment-related deaths turned out to be 0. For the same substance, in data set [1] (tested dose (equiv) 15), the “BWL (body weight loss)” value is on record as −15.7%, the “day (of body weight loss)” value was 7 and the treatment-related deaths is reported as 0. In the data set with xenograft, the “tumor volume compared with saline control” value is recorded as “significantly less tumor volume than saline control”.
